{
  "source": "patent US20180237475A1",
  "about": "(BIONIZ, published 2018)",
  "binders": {"B1": {"name": "BNZ132-1 (peptide)", "peptide": "IKEFLQRFIHIVQSIINTS"}},
  "target": "T1, human γc-subunit (common γ subunit, CD132) (human, UniProt P31785 23-369)",
  "T1 sequence (looked up)": "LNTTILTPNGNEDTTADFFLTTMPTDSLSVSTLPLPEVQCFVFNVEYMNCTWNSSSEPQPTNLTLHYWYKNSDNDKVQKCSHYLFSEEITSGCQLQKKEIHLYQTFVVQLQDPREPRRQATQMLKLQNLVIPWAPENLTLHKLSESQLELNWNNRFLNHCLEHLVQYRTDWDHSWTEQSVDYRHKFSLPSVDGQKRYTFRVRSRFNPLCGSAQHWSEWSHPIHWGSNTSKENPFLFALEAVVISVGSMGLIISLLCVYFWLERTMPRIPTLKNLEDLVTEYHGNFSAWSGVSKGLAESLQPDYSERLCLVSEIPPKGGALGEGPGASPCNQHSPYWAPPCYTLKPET",
  "assay": "cell-based or functional assay",
  "data": [
    {"binder": "B1", "values": [
      {"measurement": "IC50 on IL-2/IL-15-induced (0.1 nM each) proliferation of ex vivo human T-lymphocytes", "result": 150, "unit": "nM"}
    ]}
  ]
}
